Measurements: patent US11571480B2, “Multi-ligand drug conjugates and uses thereof” (priority 2015, dated 2023)
Numbered stars: 1 amine (or outer) side, 2 acyl side, 3 side chain; on linkers, the order of the positions; unused ones are H or OH. Bridge positions count the residues as written; N and C are the ends. Square brackets hold non-standard residues; d marks the D form. Peptide text beside a SMILES is read from it. I, II: the chains in the order shown. * marks the point of attachment. Hexanoyl(6-succinimido-3yl) = O=C1CC([*:1])C(=O)N1CCCCCC(=O)[*:2]; Pteroyl = Nc1nc2ncc(CNc3ccc(C(=O)*)cc3)nc2c(=O)[nH]1; Dolaproine = CO[C@@H]([C@@H]1CCCN1)[C@@H](C)C(=O)O; Dil = CC[C@H](C)[C@H](NC)[C@@H](CC(=O)O)OC; γGlu = O=C(O)[C@H](CCC(=O)[*:2])N[*:1]; PABC = O=C(OCc1ccc(N[*:1])cc1)[*:2]; X1 = C[C@@H](N*)[C@@H](O)c1ccccc1; Cit = NC(=O)NCCC[C@H](N)C(=O)O; NMeV = CN[C@H](C(=O)O)C(C)C

Columns and labels:
Transplanted SKOV3 tumor = assay: Inhibitory assay of conjugates LDC10B and LDC10H against xenograf tumors; type: in vivo, nude mice; conditions: 10 mg/kg
Experimental: (§1) Animal: nude mice, aged 6-8 weeks, female
(§2) 1) human large cell lung cancer cell H460, human lung cancer cell A549, ovarian cancer cell SKOV3, and breast cancer cell line HCC1954 were incubated at 37° C., 5% CO2 in IMDM medium containing 10% fetal bovine serum, the cells were passaged every 2-3 days.
(§3) 2) generation of tumors: 7×10^6 tumor cells were injected subcutaneously into the back of nude mice, and the mice were grouped for treatment after the tumor sizes were as large as about 100-200 mm^3.
(§4) 3) treatment: 3 mice/group, treated with LDC10B, LDC10H, as well as controls MMAE and PBS with doses of 5 and 10 mg/kg every 5 days, three injections.
(§5) 4) the physical performance, body weights and tumor sizes of the animals were monitored. The number of animal death was recorded during the experiment.

Transplanted H460 tumor = assay: as above; type: in vivo, nude mice
Experimental: as §1, §2, §3, §4, §5

[1] = system: Transplanted HCC1954 tumor; assay: as above; type: in vivo, nude mice; conditions: 10 mg/kg
Experimental: as §1, §2, §3, §4, §5

[2] = Detection of conjugate concentrations in xenograf tumor models (serum, anti-MMAE ELISA); type: in vivo, nude mice; conditions: 10 mg/kg, peritoneal injection
Experimental: as §1
1) Human ovarian cancer cell SKOV3 and breast cancer cell line HCC1954 were incubated at 37° C., 5% CO2 in IMDM medium containing 10% fetal bovine serum, the cells were passaged every 2-3 days.
2) generation of tumors: 7×10^6 tumor cells were injected subcutaneously into the back of nude mice, and the mice were grouped for treatment after the tumor sizes were as large as about 100˜200 mm^3.
3) treatment: 3 mice/group, 10 mg/kg, peritoneal injection.
4) blood collection: the time for blood collection before treatment was set as 0, blood was collected at 20 min, 2 h, 4 h, and 24 h after treatment. The blood was centrifuged to collect serum, which was frozen and preserved.
5) Detection: the total amount of MMAE, LDC10B, LDC10H, as well as the MMAE metabolites of LDC10B and LDC10H in serum were detected by mice anti-MMAE ELISA kit.

[3] = system: human nasopharyngeal cancer cell line KB; assay: Cytotoxicity test of conjugate LDC10BR; type: cell-based; conditions: incubated 15-30 min, then 2-3 days
Experimental: (§6) Culture medium: RPMI 1640 Medium, no folic acid
(§7) 1) human nasopharyngeal cancer cell line KB, melanoma cell line A375, and human lung cancer cell H460 were incubated at 37° C., 5% CO2 in RPMI 1640 medium containing 10% fetal bovine serum, the cells were passaged every 2-3 days.
(§8) 2) human nasopharyngeal cancer cell line KB, melanoma cell line A375, and human lung cancer cell H460 were plated at 1×10^3 cells per well (96-well plate) and incubated for 8-12 h at 37° C., 5% CO2.
(§9) 3) Stock solutions of LDC conjugates or control were prepared in PBS solution. 100 μL/well of serially diluted LDC conjugates or control was added to the cells in the plate and incubated for 15-30 min at 37° C., 5% CO2. The culture medium in the wells was then removed by aspiration and the cells were incubated in fresh culture medium without conjugates (150 μL/well) for 2-3 days at 37° C., 5% CO2.
(§10) 4) CellTiter 96® Aqueous One Solution Cell Proliferation Assay (Promega) was added to each well to measure the amount of […] cells, and the plate was incubated in an incubator for 1 h at 37° C., 5% CO2.
(§11) 5) the plate was read at 490 nm on a microplate reader, and the cell survivals were compared for cells with or without the treatment of LDC conjugates. The LDC drug concentrations that are required for 50% cell death (IC50 values) were determined.

[4] = system: human lung cancer cell H460; assay: Cytotoxicity test of conjugate LDC10BR; type: cell-based; conditions: H460, incubated 15-30 min, then 2-3 days
Experimental: as §6, §7, §8, §9, §10, §11

melanoma cell line A375 [5] = assay: Cytotoxicity test of conjugate LDC10BR; type: cell-based; conditions: A375, incubated 15-30 min, then 2-3 days
Experimental: as §6, §7, §8, §9, §10, §11

[6] = system: breast cancer cell line HCC1954; assay: Cytotoxicity test of conjugate LDC10B; type: cell-based, human; conditions: HCC1954, Incubation Time 30 min
Experimental: as §6
(§12) 1) human nasopharyngeal cancer cell line KB, melanoma cell line A375, human lung cancer cell H1299, chronic myeloid leukemia cell line K562, human lung cancer cell H460, ovarian cancer cell SKOV3, breast cancer cell line HCC1954, human gastric cancer cell N87, and human breast cancer cell SK-BR-3 were incubated at 37° C., 5% CO2 in RPMI 1640 medium containing 10% fetal bovine serum, the cells were passaged every 2-3 days.
(§13) 2) human nasopharyngeal cancer cell line KB, melanoma cell line A375, human lung cancer cell H1299, chronic myeloid leukemia cell line K562, human lung cancer cell H460, ovarian cancer cell SKOV3, breast cancer cell line HCC1954, human gastric cancer cell N87, and human breast cancer cell SK-BR-3 were plated at 1×10^3 cells per well (96-well plate) and incubated for 8-12 h at 37° C., 5% CO2.
(§14) 3) Stock solutions of LDC conjugates or controls were prepared in PBS solution. 100 μL/well of serially diluted LDC conjugates or controls was added to the test cells in the plates and incubated for 15-30 min at 37° C., 5% CO2. The culture medium in the wells was then removed by aspiration and the test cells were incubated in fresh culture medium without conjugates (150 μL/well) for 2-3 days at 37° C., 5% CO2.
(§15) 4) CellTiter 96® Aqueous One Solution Cell Proliferation Assay (Promega) was added to each well to measure the amount of […] cells, and each plate was incubated in an incubator for 1 h at 37° C., 5% CO2.
(§16) 5) Each plate was read at 490 nm on a microplate reader, and the cell survivals were compared for test cells with or without the treatment of LDC conjugates. The LDC drug concentrations that are required for 50% cell death (IC50 values) were determined.

[7] = system: ovarian cancer cell SKOV3; assay: Cytotoxicity test of conjugate LDC10B; type: cell-based, human; conditions: SKOV3, Incubation Time 30 min
Experimental: as §6, §12, §13, §14, §15, §16

[8] = system: human nasopharyngeal cancer cell line KB; assay: Cytotoxicity test of conjugate LDC10B; type: cell-based; conditions: Incubation Time 15 min
Experimental: as §6, §12, §13, §14, §15, §16

[9] = system: human lung cancer cell H460; assay: Cytotoxicity test of conjugate LDC10B; type: cell-based; conditions: H460, Incubation Time 30 min
Experimental: as §6, §12, §13, §14, §15, §16

[10] = system: human breast cancer cell SK-BR-3; assay: Cytotoxicity test of conjugate LDC10B; type: cell-based; conditions: SK-BR-3, Incubation Time 30 min
Experimental: as §6, §12, §13, §14, §15, §16

[11] = system: human lung cancer cell H1299; assay: Cytotoxicity test of conjugate LDC10B; type: cell-based; conditions: H1299, Incubation Time 30 min
Experimental: as §6, §12, §13, §14, §15, §16

[12] = system: chronic myeloid leukemia cell line K562; assay: Cytotoxicity test of conjugate LDC10B; type: cell-based; conditions: K562, Incubation Time 30 min
Experimental: as §6, §12, §13, §14, §15, §16

[13] = system: human gastric cancer cell N87; assay: Cytotoxicity test of conjugate LDC10B; type: cell-based; conditions: N87, Incubation Time 30 min
Experimental: as §6, §12, §13, §14, §15, §16

melanoma cell line A375 [14] = assay: Cytotoxicity test of conjugate LDC10B; type: cell-based; conditions: A375, Incubation Time 15 min
Experimental: as §6, §12, §13, §14, §15, §16

For `CC[C@H](C)[C@@H]([C@@H](CC(=O)N1CCC[C@H]1[C@H](OC)[C@@H](C)C(=O)N[C@H](C)[C@@H](O)c1ccccc1)OC)N(C)C(=O)[C@@H](NC(=O)[C@H](C(C)C)N(C)C(=O)OCc1ccc(NC(=O)[C@H](CCCNC(N)=O)NC(=O)[C@@H](NC(=O)CCCCCN2C(=O)CC(SC[C@H](NC(=O)CC[C@H](NC(=O)c3ccc(NCc4cnc5[nH]c(N)nc(=O)c5n4)cc3)C(=O)O)C(=O)N[C@@H](CCCCN)C(=O)N[C@@H](CCC(=O)O)C(=O)N[C@@H](Cc3ccccc3)C(=O)N[C@@H](CC(C)C)C(=O)N[C@@H](Cc3c[nH]cn3)C(=O)N3CCC[C@H]3C(=O)N[C@@H](CO)C(=O)N[C@@H](CCCCN)C(=O)N[C@H](C(=O)N[C@@H](CC(=O)O)C(=O)N[C@@H](CC(C)C)C(=O)N3CCC[C@H]3C(=O)N[C@@H](CCCNC(=N)N)C(=O)O)C(C)C)C2=O)C(C)C)cc1)C(C)C` (stereo partly shown) [LDC10B] (I: {Pteroyl-γGlu}-CKEFLHPSKVDLPR-OH / II: V[Cit][PABC][NMeV]V[Dil][Dolaproine]-X1; linker I:1-II:N via Hexanoyl(6-succinimido-3yl)), the “Body weight of mice” value (Transplanted SKOV3 tumor; Before Injection) was 22.96 g, the “Body weight of mice” value (Transplanted SKOV3 tumor; Five days after Injection 1) was 22.44 g and the “Body weight of mice” value (Transplanted SKOV3 tumor; Five days after Injection 2) was 23.23 g. The “Body weight of mice” value (Transplanted SKOV3 tumor; Five days after Injection 3) was 23.53 g, the “Body weight of mice” value (Transplanted H460 tumor; 5 mg/kg, Before Injection) was 23.13 g and the “Body weight of mice” value (Transplanted H460 tumor; 5 mg/kg, Five days after Injection 1) was 22.53 g. For the same compound, the “Body weight of mice” value (Transplanted H460 tumor; 5 mg/kg, Five days after Injection 2) was 22.26 g, the “Body weight of mice” value (Transplanted H460 tumor; 5 mg/kg, Five days after Injection 3) was 21.65 g and the “Body weight of mice” value (Transplanted H460 tumor; 10 mg/kg, Before Injection) was 22.51 g. For the same compound, the “Body weight of mice” value (Transplanted H460 tumor; 10 mg/kg, Five days after Injection 1) was 22.53 g, the “Body weight of mice” value (Transplanted H460 tumor; 10 mg/kg, Five days after Injection 2) was 23.37 g and the “Body weight of mice” value (Transplanted H460 tumor; 10 mg/kg, Five days after Injection 3) was 23 g. For the same compound, the “Body weight of mice” value ([1]; Before Injection) was 21.85 g, the “Body weight of mice” value ([1]; Five days after Injection 1) was 22.2 g and the “Body weight of mice” value ([1]; Five days after Injection 2) was 22.55 g. For the same compound, the “Body weight of mice” value ([1]; Five days after Injection 3) was 22.38 g, the Concentration in serum ([2]; 20 min) was 10800 ng/mL and the Concentration in serum ([2]; 2 h) was 5035 ng/mL. The Concentration in serum ([2]; 4 h) was 530 ng/mL, the Concentration in serum ([2]; 24 h) was 117.9 ng/mL and the “detected in serum at 24 h after treatment (in words)” value ([2]; 24 h) was “Trace amount”. For the same compound, the Concentration in serum ([2]; Before Treatment) was 0 ng/mL, the IC50 [3] was 2200 nM and the IC50 [4] was 6800 nM. For the same compound, the IC50 (melanoma cell line A375 [5]) was 51300 nM, the IC50 [6] was 14.1 nM and the IC50 [7] was 15.7 nM. The IC50 [8] was 760 nM, the IC50 [9] was 50.4 nM and the IC50 [10] was 15.9 nM. The IC50 [11] was 58.8 nM, the IC50 [12] was 14.8 nM and the IC50 [13] was 75.1 nM. The IC50 (melanoma cell line A375 [14]) was 10000 nM.
